Paper PMC9974451, “Transportin 1 is a major nuclear import receptor of the nitric oxide synthase interacting protein” (The Journal of Biological Chemistry, 2023)

Columns and labels:
Conditions in all cases: both partners purified
[1] = target: T1, His-S-importin β (full length) (UniProt Q14974 1-876); experiment: pull-down; 100 pmol His-NOSIP-MBP (WT or K78A/K79A) or MBP immobilised on amylose beads, 100 pmol purified His-tagged NTR, with or without 300 pmol RanQ69L(1-180)-GTP, 3 h, 4 °C, TPB; SDS-PAGE, Coomassie
T1 construct: called full-length importin β (FL) in the fragment experiment; the ΔN fragment ends at aa 876; also called His-importin β; S-His-importin β

His-importin 13 = target: T2, His-importin 13 (UniProt O94829 1-963); experiment: differential scanning fluorimetry; His-tagged NTR at 0.5 μM in TPB with 2 mM DTT, His-NOSIP or Ubc9 titrated in 18 steps from 0.05 to 5 μM, 5x SYPRO Orange, 25 to 90 °C; Tm plotted against concentration, exponential fit
T2 construct: importin 13; also called Imp 13; His-Imp13; source: E. coli JM109, purified (Ni-NTA agarose, size exclusion chromatography)
T2 sequence (looked up): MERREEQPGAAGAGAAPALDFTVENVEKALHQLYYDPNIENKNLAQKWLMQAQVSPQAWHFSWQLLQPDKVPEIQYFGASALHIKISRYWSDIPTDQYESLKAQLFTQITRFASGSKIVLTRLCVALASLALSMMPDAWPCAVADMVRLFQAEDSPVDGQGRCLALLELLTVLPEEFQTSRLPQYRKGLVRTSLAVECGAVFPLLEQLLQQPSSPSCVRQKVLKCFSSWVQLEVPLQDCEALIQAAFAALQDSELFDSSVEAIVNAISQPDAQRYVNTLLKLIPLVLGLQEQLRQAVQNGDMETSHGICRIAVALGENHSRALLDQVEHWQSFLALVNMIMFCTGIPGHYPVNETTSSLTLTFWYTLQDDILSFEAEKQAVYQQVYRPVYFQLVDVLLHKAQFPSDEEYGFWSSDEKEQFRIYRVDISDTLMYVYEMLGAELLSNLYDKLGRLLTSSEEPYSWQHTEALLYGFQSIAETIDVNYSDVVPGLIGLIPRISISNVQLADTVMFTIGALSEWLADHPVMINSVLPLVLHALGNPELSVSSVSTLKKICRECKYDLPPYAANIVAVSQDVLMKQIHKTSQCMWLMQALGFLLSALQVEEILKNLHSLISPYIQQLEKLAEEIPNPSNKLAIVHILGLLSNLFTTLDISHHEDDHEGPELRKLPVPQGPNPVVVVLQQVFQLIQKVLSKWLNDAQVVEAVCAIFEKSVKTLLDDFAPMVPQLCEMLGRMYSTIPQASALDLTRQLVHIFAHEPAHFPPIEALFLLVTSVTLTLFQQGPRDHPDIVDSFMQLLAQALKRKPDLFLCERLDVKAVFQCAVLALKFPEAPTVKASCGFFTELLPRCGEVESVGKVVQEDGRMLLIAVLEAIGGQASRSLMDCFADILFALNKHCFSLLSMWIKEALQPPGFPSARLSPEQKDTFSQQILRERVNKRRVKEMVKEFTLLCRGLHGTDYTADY

[2] = target: T3, His-TNPO1 (transportin 1) (UniProt Q92973-2 1-890); experiment: as above
T3 construct: transportin 1; The length 890 is printed for the MBP construct only; also called His-transportin 1
T3 sequence (looked up): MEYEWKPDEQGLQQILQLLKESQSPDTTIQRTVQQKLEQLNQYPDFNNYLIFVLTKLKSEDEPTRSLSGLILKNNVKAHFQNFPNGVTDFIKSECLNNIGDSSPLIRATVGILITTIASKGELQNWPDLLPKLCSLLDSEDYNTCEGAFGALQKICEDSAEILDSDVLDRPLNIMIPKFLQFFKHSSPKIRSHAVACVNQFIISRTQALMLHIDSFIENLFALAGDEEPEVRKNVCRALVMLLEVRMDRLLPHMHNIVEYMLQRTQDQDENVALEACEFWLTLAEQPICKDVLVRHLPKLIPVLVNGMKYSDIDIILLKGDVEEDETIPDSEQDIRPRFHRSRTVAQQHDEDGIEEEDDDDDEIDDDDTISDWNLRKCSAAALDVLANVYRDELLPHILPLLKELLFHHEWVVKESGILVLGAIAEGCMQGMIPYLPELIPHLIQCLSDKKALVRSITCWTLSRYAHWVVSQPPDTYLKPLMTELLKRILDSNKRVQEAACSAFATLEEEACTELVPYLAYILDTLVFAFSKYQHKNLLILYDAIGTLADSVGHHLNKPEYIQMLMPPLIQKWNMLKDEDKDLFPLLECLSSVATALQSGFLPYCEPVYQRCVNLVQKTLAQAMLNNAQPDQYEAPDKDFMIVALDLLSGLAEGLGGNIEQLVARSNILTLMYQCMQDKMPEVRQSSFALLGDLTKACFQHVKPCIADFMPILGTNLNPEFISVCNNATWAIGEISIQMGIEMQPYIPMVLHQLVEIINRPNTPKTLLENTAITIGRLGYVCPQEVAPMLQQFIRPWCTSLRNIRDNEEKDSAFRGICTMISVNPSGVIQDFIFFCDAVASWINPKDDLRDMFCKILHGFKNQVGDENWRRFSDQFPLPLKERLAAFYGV

[3] = target: T1, His-S-importin β (full length); experiment: pull-down; competition: 100 pmol His-S-importin β immobilised on S-protein beads, 100 pmol His-NOSIP with 0, 100, 300, 1000 pmol His-importin α, or the other way around; Coomassie
[4] = target: T1, His-S-importin β (full length); experiment: pull-down; 100 pmol GST-IBB, GST-NOSIP or GST immobilised on glutathione Sepharose beads, 100 pmol His-S-tagged importin β FL, ΔN or ΔC; Western blot with anti-importin β
[5] = target: T4, importin β ΔC (aa 1-396), His-S-tagged (UniProt Q14974 1-396); experiment: as above
T4 construct: also called Imp β ΔC; N-terminal (ΔC) fragment

[6] = target: RanQ69L (aa 1-180) loaded with GTP (UniProt P62826 1-180, Q69L); experiment: pull-down; GST-M9 or GST-NOSIP immobilised on glutathione Sepharose beads, MBP-tagged TNPO1 FL, ΔN or ΔC, with or without RanQ69L(1-180)-GTP; Coomassie

T1 sequence (Q14974 whole entry, the tested form may be a part): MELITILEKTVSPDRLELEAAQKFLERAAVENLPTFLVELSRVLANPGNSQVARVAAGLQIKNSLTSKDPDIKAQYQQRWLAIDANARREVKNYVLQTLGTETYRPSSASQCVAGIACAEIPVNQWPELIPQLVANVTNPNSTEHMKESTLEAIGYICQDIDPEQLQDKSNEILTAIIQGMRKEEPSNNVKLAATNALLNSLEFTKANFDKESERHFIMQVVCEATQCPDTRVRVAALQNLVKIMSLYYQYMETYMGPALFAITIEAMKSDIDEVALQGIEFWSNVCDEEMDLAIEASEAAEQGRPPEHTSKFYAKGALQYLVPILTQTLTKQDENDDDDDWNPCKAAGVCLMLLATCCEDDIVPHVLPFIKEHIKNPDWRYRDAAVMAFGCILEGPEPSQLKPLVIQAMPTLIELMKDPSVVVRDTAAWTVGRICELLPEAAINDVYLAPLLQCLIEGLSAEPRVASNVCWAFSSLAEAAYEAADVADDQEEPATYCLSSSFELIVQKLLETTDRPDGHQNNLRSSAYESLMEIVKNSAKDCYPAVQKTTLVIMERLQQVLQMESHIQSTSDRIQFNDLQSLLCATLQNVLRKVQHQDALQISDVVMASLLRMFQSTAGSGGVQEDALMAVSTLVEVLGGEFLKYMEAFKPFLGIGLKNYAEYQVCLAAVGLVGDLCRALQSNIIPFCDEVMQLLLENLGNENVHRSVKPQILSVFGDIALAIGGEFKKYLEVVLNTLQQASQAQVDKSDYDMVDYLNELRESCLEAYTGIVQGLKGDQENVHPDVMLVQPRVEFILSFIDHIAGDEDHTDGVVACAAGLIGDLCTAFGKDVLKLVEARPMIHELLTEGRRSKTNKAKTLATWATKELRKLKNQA
T4 sequence (Q14974 1-396, stated change not applied): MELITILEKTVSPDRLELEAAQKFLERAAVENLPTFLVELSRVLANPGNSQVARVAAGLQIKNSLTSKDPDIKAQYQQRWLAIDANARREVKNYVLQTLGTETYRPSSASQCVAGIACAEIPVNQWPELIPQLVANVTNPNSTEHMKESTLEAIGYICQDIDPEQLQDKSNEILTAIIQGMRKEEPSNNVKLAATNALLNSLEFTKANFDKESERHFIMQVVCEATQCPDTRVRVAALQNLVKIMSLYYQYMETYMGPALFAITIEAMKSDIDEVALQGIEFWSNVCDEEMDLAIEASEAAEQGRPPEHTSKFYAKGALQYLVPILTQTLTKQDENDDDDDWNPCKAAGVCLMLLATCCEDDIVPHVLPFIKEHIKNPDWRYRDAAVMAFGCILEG

B1: His-NOSIP-MBP (nitric oxide synthase interacting protein) (natural protein, UniProt Q9Y314 1-301, looked up)
chain: MTRHGKNCTAGAVYTYHEKKKDTAASGYGTQNIRLSRDAVKDFDCCCLSLQPCHDPVVTPDGYLYEREAILEYILHQKKEIARQMKAYEKQRGTRREEQKELQRAASQDHVRGFLEKESAIVSRPLNPFTAKALSGTSPDDVQPGPSVGPPSKDKDKVLPSFWIPSLTPEAKATKLEKPSRTVTCPMSGKPLRMSDLTPVHFTPLDSSVDRVGLITRSERYVCAVTRDSLSNATPCAVLRPSGAVVTLECVEKLIRKDMVDPVTGDKLTDRDIIVLQRGGTGFAGSGVKLQAEKSRPVMQA
notes: Name is printed in the order His-NOSIP-MBP; also called wildtype (WT) His-NOSIP-MBP; immobilized NOSIP; source: E. coli JM109, purified (Ni-NTA agarose, amylose resin, dialysis)
- binding result [1]: binds

B2: His-NOSIP (natural protein, UniProt Q9Y314 1-301, looked up)
chain: B1 chain
notes: Lacks the MBP tag; source: E. coli JM109, purified (Ni-NTA agarose, size exclusion chromatography)
- Kd (His-importin 13): 417 ± 100 nM
- Kd [2]: 233 ± 60 nM
- binding result [3]: binds

B3: GST-NOSIP (natural protein, UniProt Q9Y314 1-301, looked up)
chain: B1 chain
notes: also called immobilized GST-NOSIP; source: E. coli JM109, purified (glutathione Sepharose, size exclusion chromatography)
- binding result [4]: binds
- binding result [5]: binds

B4: MBP-TNPO1 FL (aa 1-890) (natural protein)
chain: T3 sequence (looked up)
notes: transportin 1, full length printed as aa 1-890 (890 residues); also called full-length TNPO1; source: E. coli BL21DE3, purified (amylose resin, size exclusion chromatography)
- binding result [6]: binds
